Laboratory results taken from paper PMC11036266.

Molecular target: Human VEGF165 (human) (UniProt P15692)
Assay: ELISA; human VEGF165 coated on MaxiSorp plates (0.4 µg/mL in PBS, pH 7.4, overnight); aflibercept samples added as 2-fold serial dilutions (1000.0-1.0 ng/mL) in 4% milk powder in PBS-T, RT, 1.5 h; detected with anti-human IgG γ chain-HRPO; EC50 by four-parametric log model

Sequence of Human VEGF165 (human) (P15692 other isoform, or with tags, fused parts or gaps): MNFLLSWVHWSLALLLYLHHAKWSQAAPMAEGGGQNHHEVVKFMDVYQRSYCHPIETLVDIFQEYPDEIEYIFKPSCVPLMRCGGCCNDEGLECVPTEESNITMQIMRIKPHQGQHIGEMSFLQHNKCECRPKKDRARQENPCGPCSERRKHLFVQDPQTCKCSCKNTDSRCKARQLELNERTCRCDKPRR
Sequence of Aflibercept with sialylated N-glycans (AFLI^Sia), isolated from total soluble protein (Fc fusion) (chain): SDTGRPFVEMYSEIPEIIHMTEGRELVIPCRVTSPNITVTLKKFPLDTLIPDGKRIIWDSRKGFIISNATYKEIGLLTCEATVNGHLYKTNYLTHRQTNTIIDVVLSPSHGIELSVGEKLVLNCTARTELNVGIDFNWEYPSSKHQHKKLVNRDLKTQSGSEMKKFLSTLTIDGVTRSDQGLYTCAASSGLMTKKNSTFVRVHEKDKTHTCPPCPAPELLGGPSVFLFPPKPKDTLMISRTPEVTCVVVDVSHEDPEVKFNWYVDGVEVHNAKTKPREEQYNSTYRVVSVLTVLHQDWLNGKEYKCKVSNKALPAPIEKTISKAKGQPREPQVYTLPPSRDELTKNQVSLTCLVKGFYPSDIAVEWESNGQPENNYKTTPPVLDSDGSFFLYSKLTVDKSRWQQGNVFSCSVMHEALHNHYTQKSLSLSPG
Sequence of Aflibercept with GlcNAc-terminated N-glycans (AFLI^GnGn), isolated from total soluble protein (Fc fusion) (chain): as above
Sequence of Aflibercept with sialylated N-glycans (AFLI^Sia), isolated from intercellular fluid (Fc fusion) (chain): as above

Row | Substance | EC50 [nM]
1 | Aflibercept with sialylated N-glycans (AFLI^Sia), isolated from total soluble protein (Fc fusion) | 0.31
2 | Aflibercept with GlcNAc-terminated N-glycans (AFLI^GnGn), isolated from total soluble protein (Fc fusion) | 0.242
3 | Aflibercept with sialylated N-glycans (AFLI^Sia), isolated from intercellular fluid (Fc fusion) | 0.358
